According to patent publication US20040254351A1:

Target: G-CSF receptor
Experiment: cell-based or functional assay

EC50/Neupogen (reporter activity in cells expressing the G-CSF receptor) (ratio to Neupogen) | Substance
0.38 | Wild-type G-CSF (from UniProt P09919 31-207) (ligand)
0.66 | G-CSF[C17A] (from UniProt P09919 31-207) (ligand)
